Here are results for 16 molecules from patent US11053304 (CENTIVAX, dated 2021).

To fix the notation:
B1: COVID19_P08_C12 (scFv, V domains shown)
VH: EVQLVESGGGLVQPGGSLRLSCAASGFTFNNYALHWVRQAPGKGLEWVSGVSWNGSRTHYADSVKGRFTISRDNSKNTLYLQMNSLRAEDTAVYYCVTNLDNSRDYFPHYFHDMDVWGQGTLVTVSS
VL: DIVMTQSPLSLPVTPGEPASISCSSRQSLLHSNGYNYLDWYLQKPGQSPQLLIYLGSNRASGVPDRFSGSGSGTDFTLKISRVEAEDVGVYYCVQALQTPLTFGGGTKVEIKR
B2: COVID19_P07_A09 (scFv, V domains shown)
VH: EVQLVESGGGLVQPGGSLRLSCAASGFTFSSYGVHWVRQAPGKGLEWVAVISHDGKKKYYADSVKGRFTISRDNSKNTLYLQMNSLRAEDTAVYYCVTNVDNSRDYFPHYFHDMDVWGQGTLVTVSS
VL: not shown
B3: COVID19_P19_C08 (scFv, V domains shown)
VH: EVQLVESGGGLVQPGGSLRLSCAASGFTFSSYAMHWVRQAPGKGLEWVSAISASSAGAYYADSVKGRFTISRDNSKNTLYLQMNSLRAEDTAVYYCVTNMDNSRDYFPHYFHDMDVWGQGTLVTVSS
VL: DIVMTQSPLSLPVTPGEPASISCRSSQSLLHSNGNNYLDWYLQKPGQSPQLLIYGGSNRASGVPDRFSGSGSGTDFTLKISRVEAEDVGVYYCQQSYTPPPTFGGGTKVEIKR
B4: COVID19_P07_F10 (scFv, V domains shown)
VH: B3 VH with A33G, A50G, I51V, S55G, A56G, A58P
VL: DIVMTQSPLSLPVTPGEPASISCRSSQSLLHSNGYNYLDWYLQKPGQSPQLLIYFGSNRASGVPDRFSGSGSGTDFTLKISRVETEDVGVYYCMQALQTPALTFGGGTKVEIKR
B5: COVID19_P19_F02 (scFv, V domains shown)
VH: B3 VH with A33G, I51Y, A53G, S55G, A56G, G57Y, A58T, Y60F
VL: DIVMTQSPLSLPVTPGEPASISCKSSQSLLHINGFNYLDWFLQKPGQSPQLLIYLGSNRAPGVPDRFSGSGSGTDFTLKISRVEAEDVGVYYCQQSLQNPRTFGGGTKVEIKR
B6: COVID19_P07_H01 (scFv, V domains shown)
VH: B2 VH with S30R, G33A, V34M, H53S, K56R, K57N, Y59F, V100M
VL: DIVMTQSPLSLPVTPGEPASISCRSSQSLLHSNGNNYMDWYLQKPGQSPQLLIYLASQRASGVPDRFSGSGSGTDFTLKISRVEAEDVGVYYCMQALQRPLTFGGGTKVEIKR
B7: COVID19_P08_D04 (scFv, V domains shown)
VH: B3 VH with T28I, H35N, A50G, A53G, S55G, A56G, M100L
VL: B6 VL with H31Q, N35Y, A56T, Q58N, S61A, M94Q, A96S, L97Y, Q98G, R99P
B8: COVID19_P08_D09 (scFv, V domains shown)
VH: B2 VH with S31T, G33A, V34M, H53Y, K56N, K57Y, K58Q, V100L
VL: not shown
B9: COVID19_P20_A11 (scFv, V domains shown)
VH: B3 VH with A53G, S55G, A56D, G57N, A58T
VL: not shown
B10: COVID19_P08_C08 (scFv, V domains shown)
VH: B3 VH with S30R, S31N, I51V, A53S, S55G, A56G, G57S, A58P
VL: DIVMTQSPLSLPVTPGEPASISCRSSQSLVHSDGDNYLNWYLQKPGQSPQLLIYSGSYRASGVPDRFSGSGSGTDFTLKISRVEAEDVGVYYCMQGTHWPLTFGGGTKVEIKR
B11: COVID19_P07_F01 (scFv, V domains shown)
VH: B3 VH with I51V, S52G, A53D, S55G, A56R, G57S, A58T, M100L
VL: not shown
B12: COVID19_P08_G07 (scFv, V domains shown)
VH: B3 VH with S31T, A33G, A50T, A53G, S54N, S55G, A56V, G57S, A58T, Y59S
VL: DIVMTQSPLSLPVTPGEPASISCRSSQSLVYSDGYTYLNWYLQKPGQSPQLLIYQVSNRASGVPDRFSGSGSGTDFTLKISRVEAEDVGVYYCMQALQTPALTFGGGTKVEIKR
B13: COVID19_P08_G02 (scFv, V domains shown)
VH: B1 VH with N30S, N31S, A33G, L34M, V37I, G50A, W53A, N54S, S56D
VL: B10 VL with D35Y, N36T, S55V, G96A, T97S, H98Q, L101P
B14: COVID19_P20_C11 (scFv, V domains shown)
VH: EVQLVESGGGLVQPGGSLRLSCAASGFTFSSYSMNWVRQAPGKGLEWVSGISGSGDRTYYADSVKGRFTISRDNSKNTLYLQMNSLRAEDTAVYYCSMQRDNSRDYFPHYFHDMDVWGQGTLVTVSS
VL: DIVMTQSPLSLPVTPGEPASISCRSSQSLLYSDGDTYLDWYLQKPGQSPQLLIYLGSIRAPGVPDRFSGSGSGTDFTLKISRVEAEDVGVYYCMQSVQTPWTFGGGTKVEIKR
B15: COVID19_P19_B08 (scFv, V domains shown)
VH: EVQLVESGGGLVQPGGSLRLSCAASGFTFSDHYMDWVRQAPGKGLEWVAAIGASGESTYYADSVKGRFTISRDNSKNTLYLQMNSLRAEDTAVYYCVTQRDNSRDYFPLWFHDMDVWGQGTLVTVSS
VL: B14 VL with V97I
B16: COVID19_P19_B04 (scFv, V domains shown)
VH: EVQLVESGGGLVQPGGSLRLSCAASGITFNNYAMTWVRQAPGKGLEWVSGISGSGGSTYYADSVKGRFTISRDNSRNTLYLQMNSLRAEDTAVYYCVTQRDNPVDYFPHYFHDMDVWGQGTLVTVSS
VL: B14 VL with S96A, V97L, T99V

Substitutions are numbered along the chain they refer to.

The target of one assay is T1, SARS-CoV-2 Receptor Binding Domain (RBD) protein (SARS-CoV-2, UniProt P0DTC2 319-541). The experiment in a line: SPR, scFv captured via anti-V5, RBD as analyte.
B1 showed a Kd of less than 50 nM.
Still for that read-out and setting: to B2 belongs less than 50 nM.
As to B3, the Kd was less than 50 nM.
B4: the Kd is less than 50 nM.
For B5, the Kd is less than 50 nM.
On the same count and under the same terms, as for B6, the figure is less than 50 nM; as for B7, less than 50 nM.
The molecule B8 yielded a dissociation constant Kd of less than 50 nM.
In the case of B9, the Kd was less than 50 nM.
For the molecule B10, the Kd is less than 50 nM.
Molecule B11 returned a dissociation constant Kd of less than 50 nM.
The molecule B12 had a Kd of less than 50 nM.
The molecule B13 yielded a Kd of less than 50 nM.
For B14, the Kd is less than 50 nM.
Molecule B15 came in with an equilibrium dissociation constant (Kd) of less than 50 nM.
Consider B16, for which the Kd is less than 50 nM.

A further assay addresses SARS-CoV-1 Receptor Binding Domain (RBD) protein (SARS-CoV-1, UniProt P59594 306-527). The experiment in a line: SPR, scFv captured via anti-V5, RBD as analyte.
B1: the binding result was “no binding (tested: up to 300 nM)”.
Consider B2, for which the binding result is on record as “no binding (tested: up to 300 nM)”.
Take B3: the binding result is “no binding (tested: up to 300 nM)”.
In the case of B4, the binding result is “no binding (tested: up to 300 nM)”.
B5: the binding result is “no binding (tested: up to 300 nM)”.
For B6, the binding result was “no binding (tested: up to 300 nM)”.
On to B7, for which the binding result was “no binding (tested: up to 300 nM)”.
In the case of B8, the binding result is reported as “no binding (tested: up to 300 nM)”.
The same measure, in the same setting: to B9 belongs “no binding (tested: up to 300 nM)”; to B10, “no binding (tested: up to 300 nM)”; to B11, “no binding (tested: up to 300 nM)”.
On the same count and under the same terms, as for B12, the entry is “no binding (tested: up to 300 nM)”; as for B13, “no binding (tested: up to 300 nM)”.
For B14, the binding result is “no binding (tested: up to 300 nM)”.
As for B15, the binding result is on record as “no binding (tested: up to 300 nM)”.
For B16, the binding result is “no binding (tested: up to 300 nM)”.

For a further assay, the target named is MERS Receptor Binding Domain (RBD) protein (MERS coronavirus, UniProt K9N5Q8 367-606). Kind of assay: SPR, scFv captured via anti-V5, RBD as analyte.
Take B1: the binding result was “no binding (tested: up to 300 nM)”.
On the same count and under the same terms, to B2 belongs “no binding (tested: up to 300 nM)”; to B3, “no binding (tested: up to 300 nM)”.
As for B4, the binding result is “no binding (tested: up to 300 nM)”.
For the molecule B5, the binding result is reported as “no binding (tested: up to 300 nM)”.
For B6, the binding result was “no binding (tested: up to 300 nM)”.
Same read-out and setting: as for B7, the entry is “no binding (tested: up to 300 nM)”; as for B8, “no binding (tested: up to 300 nM)”; as for B9, “no binding (tested: up to 300 nM)”.
For B10, the binding result is reported as “no binding (tested: up to 300 nM)”.
In the case of B11, the binding result is “no binding (tested: up to 300 nM)”.
With B12, the binding result is listed as “no binding (tested: up to 300 nM)”.
With B13, the binding result is “no binding (tested: up to 300 nM)”.
Still for that read-out and setting: to B14 belongs “no binding (tested: up to 300 nM)”.
For B15, the binding result is reported as “no binding (tested: up to 300 nM)”.
On the same count and under the same terms, as for B16, the entry is “no binding (tested: up to 300 nM)”.

The target in a further assay is T1, SARS-CoV-2 Receptor Binding Domain …. The experiment in a line: SPR, scFv captured via anti-V5, RBD as analyte. The source holds these as a separate data set.
In the case of B1, the Kd was determined as 1.1 nM, the koff came out at 5.7e-05 s⁻¹ and the kon stood at 53000 M⁻¹ s⁻¹.
For the molecule B2, binding was put at a Kd of 1.5 nM, the koff amounted to 5.7e-05 s⁻¹ and the kon is 39100 M⁻¹ s⁻¹.
In turn, B3 gave an equilibrium dissociation constant (Kd) of 27.6 nM, a koff of 0.0047 s⁻¹ and a kon of 170000 M⁻¹ s⁻¹.
Molecule B4 showed a Kd of 8.05 nM, a koff of 0.000483 s⁻¹ and a kon of 60000 M⁻¹ s⁻¹.
The molecule B5 gave a Kd of 36.1 nM, a koff of 0.00384 s⁻¹ and an association rate constant (kon) of 106000 M⁻¹ s⁻¹.
In the case of B6, binding was characterised by a dissociation constant (Kd) of 2.9 nM, the koff was 5.7e-05 s⁻¹ and the kon came to 19900 M⁻¹ s⁻¹.
Take B7: the Kd came out at 0.86 nM, the dissociation rate constant (koff) amounted to 5.7e-05 s⁻¹ and the kon was 66000 M⁻¹ s⁻¹.
For the molecule B8, the Kd was determined as 1.5 nM, the off-rate constant (koff) was determined as 5.7e-05 s⁻¹ and the kon was 38000 M⁻¹ s⁻¹.
With B9, binding was characterised by a dissociation constant (Kd) of 20.2 nM, the koff is 0.000872 s⁻¹ and the kon was determined as 43100 M⁻¹ s⁻¹.
Consider B10, for which binding was put at a Kd of 1.8 nM, the dissociation rate constant (koff) was determined as 5.7e-05 s⁻¹ and the on-rate (kon) is 32000 M⁻¹ s⁻¹.
B11 displayed a Kd of 0.8 nM, a koff of 5.7e-05 s⁻¹ and a kon of 68000 M⁻¹ s⁻¹.
On the same counts, the results for B12 are 10.6 nM, 0.00072 s⁻¹ and 68000 M⁻¹ s⁻¹.
On the same counts, the results for B13 are 2.71 nM, 0.0001 s⁻¹ and 38000 M⁻¹ s⁻¹.
On the same counts, the results for B14 are 2.94 nM, 0.000607 s⁻¹ and 207000 M⁻¹ s⁻¹.
With B15, the affinity, expressed as Kd, was 32.7 nM; the koff was 0.00685 s⁻¹; the on-rate constant (kon) came to 209000 M⁻¹ s⁻¹.
As to B16, the Kd is 22 nM, the koff was determined as 0.00795 s⁻¹ and the kon worked out at 361000 M⁻¹ s⁻¹.
